In the supplement of paper PMC10567573:

B1: MMP1 (parent)
chain: YTPDLPRADVDHAIEKAFQLWSNV
B2: UFD1L (parent)
chain: EAGGRFVAFSGEGQSLRKKGRKP

Variants of: B1
Experiment: protein stability index of a GFP-peptide fusion (GPS, HEK-293T) (PSI 1-6); higher = more stable
Conditions: c terminus: a fixed tail appended
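Note: lentivirally expressed fusions sorted by FACS into six bins by GFP to DsRed ratio, PSI derived from sequencing read proportions per bin multiplied by bin number.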

Protein stability index, by site and new letter:
A8: L 2.03, Y 1.93, C 2.07, R 1.67, D 1.53, I 1.88, F 2.94, M 1.74, S 1.68, P 1.51, G 2.83, V 1.64, E 2.67, Q 1.57, K 2.58, T 1.79
Q19: A 1.54, S 1.7, N 2.82, I 2.33, W 1.96, R 2.15, M 1.68, Y 1.87, T 3.63, P 1.52
I14: S 1.51, R 2.31, Y 2.17, V 2.08, E 1.36, T 1.39, G 2.25, F 2.14, L 1.39, C 2.1, A 1.68
S22: R 1.72, P 1.85, E 2.75, G 1.81, C 2.02, H 1.43, N 1.85, K 2.03, V 1.44, F 1.82, Y 1.67, T 1.59, L 2.19, I 2.04, Q 1.98, W 1.91
W21: M 3.03, S 3.25, V 3.18, L 3.56, G 3.01, N 3.36, R 3.25, K 3.4, H 3.42, C 3.03, D 3.88, P 3.4
T2: R 2.31, V 1.95, N 2.18, D 3.08, P 2.17, G 2.4, L 1.83, K 2.56, E 3.6, W 2.16, M 2.35, Q 1.74, Y 2.45, F 2.17, A 2.4
V10: R 2.55, L 1.27, I 1.76, E 1.81, S 1.88, K 2.44, C 2.1, A 2.06, G 1.96, P 1.49, T 1.91, N 1.48, D 2.16
D4: Y 3.17, H 2.28, V 3.17, C 1.69, T 3.69, G 2.16, N 2.56, M 2.23, I 2.75, S 2.35, P 1.99
H12: C 1.62, R 1.64, N 1.92, L 2.19, S 1.58, P 2.11, I 2, K 1.79, V 1.95, G 2.03, Q 1.69, F 1.7, Y 2
E15: R 2.73, D 1.58, K 1.32, L 2.65, H 2.09, F 2.56, V 1.39, C 2.24, Y 2.07
L20: D 2.96, S 2.29, Q 1.59, R 1.99, A 2.17, M 1.77, K 2.9, N 2.19, T 2.21, F 2.67, V 2.76
P6: I 2.09, T 1.78, Q 2.03, S 2.55, V 2.12, C 2.05, M 2.2, A 1.56, F 1.82, D 2.01, H 1.55, Y 1.47, R 1.78
K16: S 2, W 3.17, N 1.52, L 1.52, M 1.54, G 1.19, Y 3.76, F 1.52, A 2.07
D9: I 1.78, V 2.62, W 1.51, C 1.75, F 1.57, M 2.31
D11: S 1.96, A 2.08, K 2.21, E 1.4, V 1.59, Y 1.7, P 3.09, Q 1.83, R 2.69, W 1.73
A13: Q 2.03, P 1.58, M 2.61, R 2.08, D 1.71, N 2.11, E 2.19, V 2.79, W 2.06, F 1.79, L 1.63
N23: R 2.01, H 1.69, T 2.07, W 1.97, F 2.29, Q 1.57, I 2.05, Y 1.43, M 2.02, E 2.49
A17: H 2.68, L 1.79, D 1.97, S 2.11, V 2.38, P 1.43, Y 1.68, K 1.44, W 1.25, F 1.97, Q 1.82, C 1.83, N 1.53, I 2.15
F18: K 2.22, W 1.48, V 2.04, H 3.17, A 1.83, Y 2.11, G 2.23, T 2.13, P 1.99, D 2.18
Y1: I 2.64, G 2.97, D 3.57, P 3.47, E 3.53, R 2.97, Q 3.08, W 2.32, F 2.48
P3: Y 1.8, F 2.3, E 2.66, K 2.01, N 2.5, H 1.79, M 1.88
R7: I 1.5, S 1.75, Y 1.08, H 1.89, T 1.88, F 2.09, E 1.94, M 2.25, G 1.91, K 2.12
L5: F 2.64, H 2.2, D 2.34, Y 1.44, M 2.12, K 1.91, C 1.84, E 2.16, R 2.49, N 1.92, I 2.1
V24: Y 2.63, E 2.16, F 1.83, T 2.29, S 1.66, N 1.94, C 1.87, L 1.65, I 1.79, D 2.02, M 2.29, P 2.43

Variants of: B2
Experiment: as above
Conditions: c terminus: native

Protein stability index of substitutions, site by site:
E1: C 2.5, D 2.33, G 2.5, L 1.92, T 2.17, Y 3.86
A2: D 3.92, H 1.15, I 3, N 1.23, P 2.55, R 1.1, S 1.82, T 1.64, Y 2.35
G3: C 1.6, D 1.88, E 2.71, L 3.08, M 2.11, N 1.63, P 1.24, Q 2.16, S 1.82, T 2.14, W 1.67
G4: D 2.5, H 2.12, K 2.58, L 1.25, N 1, Q 1.92, S 3.12, T 1.5
R5: A 3.01, D 4.49, E 3.18, F 2.14, I 1.48, K 2.01, L 2.46, M 1.85, N 2.6, P 3.69, Q 3.3, S 3.17, T 3.2, Y 1.48
F6: A 3.06, D 4.59, G 2.2, H 1.75, K 2.25, M 1.81, P 3.15, Q 2.17, S 2.41, T 4.93, Y 2.38
V7: A 2.69, C 2.03, D 3.75, E 2.91, F 1.9, G 1.39
